The values below are quoted from earlier work in patent US20160136246A1, “Novel Uses of GLP-1 Receptor Agonists in Patients Treated with Insulin and/or Suffering from Type 1 Diabetes” (NOVO NORDISK A/S, priority 2013, published 2016).

For this data set the following is noted: in humans; cited from earlier work.

“GLP-1: glucagon-like peptide-1, a product of proglucagon, gut hormone”: the plasma half-life is 2 min.
